In publication PMC5363870, “A functional variant in NEPH3 gene confers high risk of renal failure in primary hematuric glomerulopathies. Evidence for predisposition to microalbuminuria in the general population” (PLoS ONE, 2017):

B1: Neph3 (filtrin) 353M variant (natural protein, human, UniProt Q6UWL6 21-708, looked up)
chain: GPSPHFLQQPEDLVVLLGEEARLPCALGAYWGLVQWTKSGLALGGQRDLPGWSRYWISGNAANGQHDLHIRPVELEDEASYECQATQAGLRSRPAQLHVLVPPEAPQVLGGPSVSLVAGVPANLTCRSRGDARPTPELLWFRDGVLLDGATFHQTLLKEGTPGSVESTLTLTPFSHDDGATFVCRARSQALPTGRDTAITLSLQYPPEVTLSASPHTVQEGEKVIFLCQATAQPPVTGYRWAKGGSPVLGARGPRLEVVADASFLTEPVSCEVSNAVGSANRSTALDVLFGPILQAKPEPVSVDVGEDASFSCAWRGNPLPRVTWTRRGGAQMLGSGATLRLPSVGPEDAGDYVCRAEAGLSGLRGGAAEARLTVNAPPVVTALHSAPAFLRGPARLQCLVFASPAPDAVVWSWDEGFLEAGSQGRFLVETFPAPESRGGLGPGLISVLHISGTQESDFSRSFNCSARNRLGEGGAQASLGRRDLLPTVRIVAGVAAATTTLLMVITGVALCCWRHSKASASFSEQKNLMRIPGSSDGSSSRGPEEEETGSREDRGPIVHTDHSDLVLEEEGTLETKDPTNGYYKVRGVSVSLSLGEAPGGGLFLPPPSPLGPPGTPTFYDFNPHLGMVPPCRLYRARAGYLTTPHPRAFTSYIKPTSFGPPDLAPGTPPFPYAAFPTPSHPRLQTHV
notes: Neph3 (filtrin), human NEPH3 cDNA with the natural variant V353M (GTG to ATG by site-directed mutagenesis); Each copy carries ONE tag: FLAG on the bait copy, HA on the prey copy of the homodimerisation co-IP; Two FLAG constructs are described (Origene pCMV6 with FLAG-tag; modified pcDNA6 with CD5 signal peptide fused to the FLAG-tag); also called NEPH3-V353M; NEPH3-p.V353M; source: HEK 293T, …
B2: Neph3 (filtrin) 353V (natural protein, human, UniProt Q6UWL6 21-708, looked up)
chain: GPSPHFLQQPEDLVVLLGEEARLPCALGAYWGLVQWTKSGLALGGQRDLPGWSRYWISGNAANGQHDLHIRPVELEDEASYECQATQAGLRSRPAQLHVLVPPEAPQVLGGPSVSLVAGVPANLTCRSRGDARPTPELLWFRDGVLLDGATFHQTLLKEGTPGSVESTLTLTPFSHDDGATFVCRARSQALPTGRDTAITLSLQYPPEVTLSASPHTVQEGEKVIFLCQATAQPPVTGYRWAKGGSPVLGARGPRLEVVADASFLTEPVSCEVSNAVGSANRSTALDVLFGPILQAKPEPVSVDVGEDASFSCAWRGNPLPRVTWTRRGGAQVLGSGATLRLPSVGPEDAGDYVCRAEAGLSGLRGGAAEARLTVNAPPVVTALHSAPAFLRGPARLQCLVFASPAPDAVVWSWDEGFLEAGSQGRFLVETFPAPESRGGLGPGLISVLHISGTQESDFSRSFNCSARNRLGEGGAQASLGRRDLLPTVRIVAGVAAATTTLLMVITGVALCCWRHSKASASFSEQKNLMRIPGSSDGSSSRGPEEEETGSREDRGPIVHTDHSDLVLEEEGTLETKDPTNGYYKVRGVSVSLSLGEAPGGGLFLPPPSPLGPPGTPTFYDFNPHLGMVPPCRLYRARAGYLTTPHPRAFTSYIKPTSFGPPDLAPGTPPFPYAAFPTPSHPRLQTHV
notes: Neph3 (filtrin), human NEPH3 cDNA, wild-type allele with valine at position 353; Each copy carries ONE tag: FLAG on the bait copy, HA on the prey copy of the homodimerisation co-IP; Two FLAG constructs are described (Origene pCMV6 with FLAG-tag; modified pcDNA6 coding for the CD5 signal peptide fused to the FLAG-tag); In the pcDNA6 constructs a CD5 signal peptide precedes the tag; also called …

How the values were obtained:
Assay in all cases: co-IP; HEK 293T cells co-transfected, lysed in IP-buffer (1% Triton X-100, 20 mM Tris pH 7.5, 25 mM NaCl); FLAG-Neph3 precipitated with anti-FLAG, blot with anti-HA (HA-Neph3) or anti-V5 (sV5-nephrin); densitometry (ImageJ) normalised to input, wild type set at 1.0, n = 3
[1] = target: B2; details: partners not purified
[2] = target: B1; details: partners not purified
[3] = target: the molecule itself

Binder | mean normalized densitometry value (co-IP) [1] | mean densitometry value (co-IP) [2] | mean normalized densitometry value (co-IP) [3]
Nephrin (Nphs1) (natural protein, human, UniProt O60500 23-1241, looked up, Nephrin, human NPHS1 cDNA cloned into a modified pcDNA6 vector behind the CD5 signal peptide and the V5 tag (sV5-tag); A CD5 signal peptide precedes the V5 tag in the construct; also called sV5-Nphs1; sV5-Nephrin; source: HEK 293T, transfected (calcium phosphate), in lysate; not shown: V5, N-terminal, kept) QLAIPASVPRGFWALPENLTVVEGASVELRCGVSTPGSAVQWAKDGLLLGPDPRIPGFPRYRLEGDPARGEFHLHIEACDLSDDAEYECQVGRSEMGPELVSPRVILSILVPPKLLLLTPEAGTMVTWVAGQEYVVNCVSGDAKPAPDITILLSGQTISDISANVNEGSQQKLFTVEATARVTPRSSDNRQLLVCEASSPALEAPIKASFTVNVLFPPGPPVIEWPGLDEGHVRAGQSLELPCVARGGNPLATLQWLKNGQPVSTAWGTEHTQAVARSVLVMTVRPEDHGAQLSCEAHNSVSAGTQEHGITLQVTFPPSAIIILGSASQTENKNVTLSCVSKSSRPRVLLRWWLGWRQLLPMEETVMDGLHGGHISMSNLTFLARREDNGLTLTCEAFSEAFTKETFKKSLILNVKYPAQKLWIEGPPEGQKLRAGTRVRLVCLAIGGNPEPSLMWYKDSRTVTESRLPQESRRVHLGSVEKSGSTFSRELVLVTGPSDNQAKFTCKAGQLSASTQLAVQFPPTNVTILANASALRPGDALNLTCVSVSSNPPVNLSWDKEGERLEGVAAPPRRAPFKGSAAARSVLLQVSSRDHGQRVTCRAHSAELRETVSSFYRLNVLYRPEFLGEQVLVVTAVEQGEALLPVSVSANPAPEAFNWTFRGYRLSPAGGPRHRILSSGALHLWNVTRADDGLYQLHCQNSEGTAEARLRLDVHYAPTIRALQDPTEVNVGGSVDIVCTVDANPILPGMFNWERLGEDEEDQSLDDMEKISRGPTGRLRIHHAKLAQAGAYQCIVDNGVAPPARRLLRLVVRFAPQVEHPTPLTKVAAAGDSTSSATLHCRARGVPNIVFTWTKNGVPLDLQDPRYTEHTYHQGGVHSSLLTIANVSAAQDYALFTCTATNALGSDQTNIQLVSISRPDPPSGLKVVSLTPHSVGLEWKPGFDGGLPQRFCIRYEALGTPGFHYVDVVPPQATTFTLTGLQPSTRYRVWLLASNALGDSGLADKGTQLPITTPGLHQPSGEPEDQLPTEPPSGPSGLPLLPVLFALGGLLLLSNASCVGGVLWQRRLRRLAEGISEKTEAGSEEDRVRNEYEESQWTGERDTQSSTVSTTEAEPYYRSLRDFSPQLPPTQEEVSYSRGFTGEDEDMAFPGHLYDEVERTYPPSGAWGPLYDEVQMGPWDLHWPEDTYQDPRGIYDQVAGDLDTLEPDSLPFELRGHLV | 1 relative to wild type (1.0) | 1.18 relative to wild type (1.0) | –
B1 | 4.33 relative to wild type (1.0) | – | 23.8 relative to wild type (1.0)
B2 | – | – | 1 relative to wild type (1.0)
